Laboratory results taken from patent publication US20260034246A1 (REGENXBIO, published 2026).

Key:
[1] = molecular target: T1, Mouse Complement C5 Protein (mouse, UniProt P06684 19-1680, limits assumed, biotinylated in the Octet assay (sites not given)); test: BLI (OctetRED384), biotinylated mouse C5 on SA biosensor, Crovalimab scFv.HL as analyte, 30 C
T1 construct: native C5 of normal mouse serum in the hemolysis assays; also called Mouse C5; mC5

[2] = molecular target: T2, Cyno Complement C5 Protein (cynomolgous macaque); test: BLI (OctetRED384), biotinylated cyno C5 on SA biosensor, Crovalimab scFv.HL as analyte, 30 C
T2 construct: also called Cyno C5; Biotinylated cyno C5 antigen

[3] = molecular target: T2, Cyno Complement C5 Protein; test: BLI (OctetRED384), biotinylated cyno C5 on SA biosensor, Crovalimab IgG as analyte, 30 C
Procedure: The assay was performed at 30° C. and at 1000 rpm. Biotinylated cyno C5 antigen was firstly immobilized onto SA biosensor.

[4] = molecular target: T1, Mouse Complement C5 Protein; test: BLI (OctetRED384), biotinylated mouse C5 on SA biosensor, Crovalimab IgG as analyte, 30 C
Procedure: (§1) The assay was performed at 30° C. and at 1000 rpm. Biotinylated mouse C5 antigen was firstly immobilized onto SA biosensor.

[5] = molecular target: T2, Cyno Complement C5 Protein; test: BLI (OctetRED384), biotinylated cyno C5 on SA biosensor, Crovalimab-Fab-His6 as analyte, 30 C
[6] = molecular target: T1, Mouse Complement C5 Protein; test: BLI (OctetRED384), biotinylated mouse C5 on SA biosensor, Crovalimab-Fab-His6 as analyte, 30 C
Procedure: as §1

[7] = molecular target: T1, Mouse Complement C5 Protein; test: BLI (OctetRED384), biotinylated mouse C5 on SA biosensor, BB5.1 IgG as analyte, 30 C
Procedure: as §1

[8] = molecular target: T1, Mouse Complement C5 Protein; test: BLI (OctetRED384), biotinylated mouse C5 on SA biosensor, BB5.1-Fab-His6 as analyte, 30 C
Procedure: as §1

[9] = molecular target: T1, Mouse Complement C5 Protein; test: BLI (OctetRED384), biotinylated mouse C5 on SA biosensor, BB5.1 scFv.LH as analyte, 30 C
Procedure: as §1

B1: Crovalimab scFv.HL (scFv)
scFv: QVQLVESGGGLVQPGRSLRLSCAASGFTVHSSYYMAWVRQAPGKGLEWVGAIFTGSGAEYKAEWAKGRVTISKDTSKNQVVLTMTNMDPVDTATYYCASDAGYDYPTHAMHYWGQGTLVTVSSGGGGSGGGGSGGGGSDIQMTQSPSSLSASVGDRVTITCRASQGISSSLAWYQQKPGKAPKLLIYGASETESGVPSRFSGSGSGTDFTLTISSLQPEDFATYYCQNTKVGSSYGNTFGGGTKVEIKR
notes: also called Anti-hC5 scFV; Crovalimab scFv mAb
For B1, the Kd [1] was 4.54 nM and the Kd [2] was 0.0845 nM.

B2: Crovalimab IgG (full-length mAb) (antibody, V domains shown)
VH: QVQLVESGGGLVQPGRSLRLSCAASGFTVHSSYYMAWVRQAPGKGLEWVGAIFTGSGAEYKAEWAKGRVTISKDTSKNQVVLTMTNMDPVDTATYYCASDAGYDYPTHAMHYWGQGTLVTVSS
VL: DIQMTQSPSSLSASVGDRVTITCRASQGISSSLAWYQQKPGKAPKLLIYGASETESGVPSRFSGSGSGTDFTLTISSLQPEDFATYYCQNTKVGSSYGNTFGGGTKVEIKR
notes: also called Anti-hC5 IgG; Crovalimab full-length mAb
With B2 the Kd [3] was 0.0131 nM and the Kd [4] was 0.0229 nM.

B3: Crovalimab-Fab-His6 (Fab, V domains shown)
VH: QVQLVESGGGLVQPGRSLRLSCAASGFTVHSSYYMAWVRQAPGKGLEWVGAIFTGSGAEYKAEWAKGRVTISKDTSKNQVVLTMTNMDPVDTATYYCASDAGYDYPTHAMHYWGQGTLVTVSS
VL: DIQMTQSPSSLSASVGDRVTITCRASQGISSSLAWYQQKPGKAPKLLIYGASETESGVPSRFSGSGSGTDFTLTISSLQPEDFATYYCQNTKVGSSYGNTFGGGTKVEIKR
notes: also called Anti-hC5 Fab; Crovalimab Fab mAb
In the case of B3, the Kd [5] is reported as 0.0602 nM and the Kd [6] is reported as 4.14 nM.

B4: BB5.1 IgG (full-length mAb) (antibody, V domains shown)
VH: QVQLQQPGAELVRPGTSVKLSCKASGYTFTSSWMHWVKQRPGQGLEWIGVIDPSDSYTNYNQKFKGKATLTVDTSSSTAYMQLSSLTSEDSAVYYCARGGGSSYNRYFDVWGTGTTVTVSS
VL: NIMMTQSPSSLAVSAGEKVTMSCKSSQSVLYSSNQKNYLAWYQQKPGQSPKLLIYWASTRESGVPDRFTGSGSGTDFTLTISSVQAEDLAVYYCHQYLSSRTFGGGTKLEIKR
notes: Surrogate anti-mouse C5 mAb; purified recombinant protein expressed in HEK293 cells; also called Anti-mC5 IgG; BB5.1 full-length mAb
B4 was tested, and the Kd [7] was 0.0121 nM.

B5: BB5.1-Fab-His6 (Fab, V domains shown)
VH: QVQLQQPGAELVRPGTSVKLSCKASGYTFTSSWMHWVKQRPGQGLEWIGVIDPSDSYTNYNQKFKGKATLTVDTSSSTAYMQLSSLTSEDSAVYYCARGGGSSYNRYFDVWGTGTTVTVSS
VL: NIMMTQSPSSLAVSAGEKVTMSCKSSQSVLYSSNQKNYLAWYQQKPGQSPKLLIYWASTRESGVPDRFTGSGSGTDFTLTISSVQAEDLAVYYCHQYLSSRTFGGGTKLEIKR
notes: also called Anti-mC5 Fab; BB5.1 Fab mAb
For B5, the Kd [8] was 3.47 nM.

B6: BB5.1 scFv.LH (scFv)
scFv: NIMMTQSPSSLAVSAGEKVTMSCKSSQSVLYSSNQKNYLAWYQQKPGQSPKLLIYWASTRESGVPDRFTGSGSGTDFTLTISSVQAEDLAVYYCHQYLSSRTFGGGTKLEIKRGGGGSGGGGSGGGGSQVQLQQPGAELVRPGTSVKLSCKASGYTFTSSWMHWVKQRPGQGLEWIGVIDPSDSYTNYNQKFKGKATLTVDTSSSTAYMQLSSLTSEDSAVYYCARGGGSSYNRYFDVWGTGTTVTVSS
notes: also called Anti-mC5 scFV; BB5.1 scFv mAb
B6 gave a Kd [9] of 3.69 nM.
